Where two headings read alike, the source gives them in different places.
What was measured:
[1] = target: Human HSP90β (human) (UniProt P08238); assay: cryo-EM structure
[2] = target: Human HSP90β (human) (UniProt P08238); assay: cryo-EM structure; remark: listed apart in the source

Sequence of Human HSP90β, P08238 3-724 (natural protein; other documents disagree on this pair) (P08238 3-724): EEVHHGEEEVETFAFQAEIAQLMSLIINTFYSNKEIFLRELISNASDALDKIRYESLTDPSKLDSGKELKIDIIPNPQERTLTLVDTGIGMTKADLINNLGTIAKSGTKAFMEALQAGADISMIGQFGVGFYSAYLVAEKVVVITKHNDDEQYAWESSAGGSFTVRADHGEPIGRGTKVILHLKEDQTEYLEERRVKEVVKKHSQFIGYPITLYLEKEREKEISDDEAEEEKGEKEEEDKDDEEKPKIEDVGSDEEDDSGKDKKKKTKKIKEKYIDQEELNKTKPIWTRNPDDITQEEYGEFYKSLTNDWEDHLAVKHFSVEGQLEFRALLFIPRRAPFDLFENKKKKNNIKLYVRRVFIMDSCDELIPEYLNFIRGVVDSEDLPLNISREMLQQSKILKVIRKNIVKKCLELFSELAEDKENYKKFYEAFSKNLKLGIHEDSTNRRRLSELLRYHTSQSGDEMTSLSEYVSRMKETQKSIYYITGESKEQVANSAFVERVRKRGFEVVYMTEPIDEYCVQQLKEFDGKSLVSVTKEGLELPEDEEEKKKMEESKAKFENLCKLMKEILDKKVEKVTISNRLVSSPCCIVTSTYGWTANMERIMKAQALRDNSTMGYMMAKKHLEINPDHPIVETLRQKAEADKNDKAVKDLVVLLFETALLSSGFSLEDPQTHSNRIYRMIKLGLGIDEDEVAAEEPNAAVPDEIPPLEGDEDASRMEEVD

stoichiometry N [1]: 2
stoichiometry N [2]: 2
Substance: Human HSP90β, P08238 3-724 (natural protein; other documents disagree on this pair)

Source: doi:10.1101/2025.10.17.682828
